Where a SMILES comes first, the peptide text is derived from it. Bridges are numbered along the chain shown (N, C = ends). [ ]: non-standard residue; d: D form. The star is where a group is joined. Succinimide(1-Et,3-yl) = CCN1C(=O)CC(*)C1=O; R8 = C=CCCCCCC[C@@](C)(N)C(=O)O; S5 = C=CCCC[C@](C)(N)C(=O)O; code Z = not defined here; Aib = CC(C)(N)C(=O)O; CH2F = FC*
What was measured:
circular dichroism = details: 10 mM sodium phosphate; pH 7; 1 °C; 50 uM
[1] = tested on: OCI-Ly3 (ABC-DLBCL, MALT1 dependent); assay: Cell death assay (CellTiter-Blue resazurin); assay type: cell-based, human; details: OCI-Ly3, 48 h
Description: (§1) The CellTiter-Blue® Cell Viability kit assay purchased from Promega was used to assess the cell death induced by NEMO stapled peptides in ABC- and GCB-DLBCL cell lines. […] Cells were considered 100% death when the fluorescence intensity value was the same as the one with the medium alone or with the cells treated with the cycloheximide protein synthesis inhibitor at 25 μM (Sigma Aldrich).
(§2) For each time point measurement 100 μl of cell samples were withdrawn at different incubation times (7 h, 24 h and 48 h) and subjected to resazurin assay for one hour at 37° C. in the CO2 incubator by adding and mixing for 10 sec 20 μl of resazurin. Fluorescence measurements were performed with a TECAN infinite F500 instrument at 560 nm excitation wavelength and 590 nm emission wavelength. Viability of cells at time 0 was determined just before adding compound and all experiments were performed in duplicate.
(§3) The percentage of cell death was calculated according to the following formula: (1−((RFUobs−blank)/(RFU100% viability−blank))*100), where RFUobs corresponds to the cells viability observed in the presence of compound, RFU100% viability, the initial cells viability and blank the background fluorescence measured using the medium alone.
(§4) The EC50 value was calculated by plotting the percentage of cell death as function of the compound concentration and fitting the experimental curve with the following formula: (A*P0)/(EC50+P0), where A is the amplitude of fluorescence, P0 is the peptide concentration.
(§5) To compare the inhibition efficiency of BA-UBI-SAHND306-Q313 with IKK inhibitors (MLN120B, MedChem Express) or IKKα/β inhibitor (TPCA1, R&D systems), 25,000 DLBCL cells (OCI-Ly3) were incubated for 7 h with an increasing concentration of IKK inhibitors ranging from 0 to 50 μM, and the amount of cell death was then determined using CellTiter-Blue® Cell Viability kit assay. For the MI-2 MALT1 inhibitor (Fontan et al., 2012, Cancer cell 22, 812-824), similar experiments were carried out in MALT dependent (OCI-Ly3) and independent (HLY1) DLBCL cells using a 0-25 μM range.

NF-κB pathway = NF-κB pathway (Mus musculus, UniProt O88522); assay: NF-κB inhibition assay, LPS-stimulated 70Z3-C3 lacZ reporter cells; assay type: cell-based
Text: The stable cell line of pre-B lymphocyte 70Z3-C3 cells expressing the lacZ reporter gene under the control of NF-κB was previously described. OCI-Ly3 (ABC-DLBCL, MALT1 dependent) and OCI-Ly7 (GCB-DLBCL). U2932 (ABC-DLBCL, MALT1 independent) were purchased from DSMZ (Deutsche Sammlung von Mikroorganismen and Zellkulturen) and HLY1 (ABC-DLBCL, MALT1 independent). Jurkat T-cells were obtained after transduction of lentiviruses containing a NF-κB reporter luciferase gene as previously described. All cell lines were grown in RPMI 1640 medium supplemented with 10% FBS, 10 μg/ml of streptomycin, 10 U/ml of penicillin and kept at 37° C., in a 5% CO2 humidified incubator. 0.05 mM of β-mercaptoethanol was added for 70Z3-C3. Primary and secondary antibodies were as following: polyclonal rabbit anti NF-κB p65, (sc-372, Santa Cruz Biotechnology, Inc) Alexa-488 coupled goat anti-rabbit IgG1 (Invitrogen) NF-κB inhibition assay was almost similar to those previously described in [1], except that luminescence data were monitored with a Centro XS^3, LB960 luminometer (Berthold technologies.), which is more sensitive. All experiments were performed in duplicates in 96-well plates. […] After 4 h incubation, cells were centrifuged 7 min at 400×g, at 4° C.

CC2-LZ domain of NEMO = CC2-LZ domain of NEMO (Mus musculus, UniProt O88522); assay: Fluorescence anisotropy/polarization binding assay
Description: Measurements were performed on a Tecan infinite F500 equipped with polarizing filters and using excitation and emission wavelengths at 485 nm and 535 nm, respectively. Anisotropy data were calculated using the Magellan software version 6.5. Prior experiments, the mouse CC2-LZ was extensively dialyzed in binding buffer containing 20 mM HEPES pH 7.4, 100 mM NaCl, and 0.05% P20 detergent (v/v). All experiments were performed in a 384 well plate (vol 25 μl) at room temperature. The BODIPY®-labeled peptide concentrations were fixed at 0.1 or 10 μM whereas the CC2-LZ concentration varied from 0 to 100 μM. Reference calibrated at 22 mP, was based on the fluorescence of the peptide alone. Each experimental binding curve was determined from at least 10 independent concentration points. The G-factor was calculated as previously described in Agou et al. [7], with a value of 0.75, which was observed constant within 5% upon all titrations. For analysis, the blank value corresponding to the value of buffer alone, was subtracted from all titration data.
All NEMO peptides were conjugated to an extra N-terminal cysteine with the fluorophore BODIPY® or FITC to determine their binding affinity for the CC2-LZ domain of NEMO (also called NOA or UBAN) by fluorescence polarization. For each peptide titration, various concentration of the target ranging from 0 to 100 μM and a fixed concentration of peptide at 0.1 or 10 μM were used at 25° C. […] For these reasons, all further titration experiments were performed with a fixed peptide concentration of 0.1 μM unless otherwise indicated.

[2] = tested on: HLY1 (ABC-DLBCL, MALT1 independent); assay: Cell death assay (CellTiter-Blue resazurin); assay type: cell-based, human; details: HLY1, for at least 48 h
Description: as §1, §2, §3, §4, §5

Chain of CC2-LZ domain of NEMO (O88522 242-343 limits assumed): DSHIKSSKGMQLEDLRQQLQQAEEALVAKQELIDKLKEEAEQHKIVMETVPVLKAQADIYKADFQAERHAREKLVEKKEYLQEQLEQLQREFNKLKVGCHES
Chain of NF-κB pathway (O88522 whole entry): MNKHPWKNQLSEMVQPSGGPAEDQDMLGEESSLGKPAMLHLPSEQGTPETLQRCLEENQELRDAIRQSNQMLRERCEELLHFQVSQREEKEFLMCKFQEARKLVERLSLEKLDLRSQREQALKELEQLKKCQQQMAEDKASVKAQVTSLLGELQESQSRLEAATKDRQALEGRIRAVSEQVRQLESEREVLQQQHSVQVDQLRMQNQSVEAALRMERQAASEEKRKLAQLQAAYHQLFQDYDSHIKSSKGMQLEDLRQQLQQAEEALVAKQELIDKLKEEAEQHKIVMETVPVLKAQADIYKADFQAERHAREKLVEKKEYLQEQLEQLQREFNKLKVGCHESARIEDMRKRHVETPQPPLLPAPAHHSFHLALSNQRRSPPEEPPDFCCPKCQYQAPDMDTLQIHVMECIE

Molecule | helicity (circular dichroism) [rel %] | further results
CC[C@H](C)[C@H](NC(=O)[C@H](CC(=O)O)NC(=O)[C@H](C)NC(=O)[C@H](CCC(N)=O)NC(=O)[C@H](C)NC(=O)[C@H](CCCCN)NC(=O)[C@H](CC(C)C)NC(=O)[C@H](CSC1CC(=O)N(CC)C1=O)NC(C)=O)C(=O)N[C@@H](Cc1ccc(O)cc1)C(=O)N[C@@H](CCCCN)C(=O)N[C@@H](C)C(=O)N[C@@H](CCCNC(=N)N)C(=O)N[C@@H](Cc1ccccc1)C(=O)N[C@@H](CCC(N)=O)C(=O)N[C@@H](C)C(=O)N[C@@H](CCC(=O)O)C(=O)N[C@@H](CCCNC(=N)N)C(=O)N[C@@H](Cc1c[nH]cn1)C(=O)N[C@@H](C)C(=O)N[C@@H](CCCNC(=N)N)C(=O)N[C@@H](CCC(=O)O)C(=O)N[C@@H](CCCCN)C(N)=O (some centres unmarked) (Ac-C(Succinimide(1-Et,3-yl))LKAQADIYKARFQAERHAREK-NH2) | 42 | –
CC[C@H](C)[C@H](NC(=O)[C@H](CC(=O)O)NC(=O)[C@H](C)NC(=O)[C@H](CCC(N)=O)NC(=O)[C@H](C)NC(=O)[C@H](CCCCN)NC(=O)[C@H](CC(C)C)NC(=O)[C@H](CSC1CC(=O)N(CC)C1=O)NC(C)=O)C(=O)N[C@@H](Cc1ccc(O)cc1)C(=O)N[C@@H](CCCCN)C(=O)N[C@@]1(C)CCCC=CCCC[C@@](C)(C(=O)N[C@@H](CCC(=O)O)C(=O)N[C@@H](CCCNC(=N)N)C(=O)N[C@@H](Cc2c[nH]cn2)C(=O)N[C@@H](C)C(=O)N[C@@H](CCCNC(=N)N)C(=O)N[C@@H](CCC(=O)O)C(=O)N[C@@H](CCCCN)C(N)=O)NC(=O)[C@H](CCC(N)=O)NC(=O)[C@H](Cc2ccccc2)NC(=O)[C@H](CCCNC(=N)N)NC1=O (some centres unmarked) (Ac-C(Succinimide(1-Et,3-yl))LKAQADIYK[S5]RFQ[S5]ERHAREK-NH2; staple 11-15) | 65 | –
CC[C@H](C)[C@@H]1NC(=O)[C@H](CC(=O)O)NC(=O)[C@H](C)NC(=O)[C@H](CCC(N)=O)NC(=O)[C@](C)(NC(=O)[C@H](CCCCN)NC(=O)[C@H](CC(C)C)NC(=O)[C@H](CSC2CC(=O)N(CC)C2=O)NC(C)=O)CCCCCC/C=C\CCC[C@@](C)(C(=O)N[C@@H](CCCNC(=N)N)C(=O)N[C@@H](Cc2ccccc2)C(=O)N[C@@H](CCC(N)=O)C(=O)N[C@@H](C)C(=O)N[C@@H](CCC(=O)O)C(=O)N[C@@H](CCCNC(=N)N)C(=O)N[C@@H](Cc2c[nH]cn2)C(=O)N[C@@H](C)C(=O)N[C@@H](CCCNC(=N)N)C(=O)N[C@@H](CCC(=O)O)C(=O)N[C@@H](CCCCN)C(N)=O)NC(=O)[C@H](CCCCN)NC(=O)[C@H](Cc2ccc(O)cc2)NC1=O (some centres unmarked) (Ac-C(Succinimide(1-Et,3-yl))LK[R8]QADIYK[S5]RFQAERHAREK-NH2; staple (Z) 4-11) | 63 | –
CCN1C(=O)CC(SC[C@H](NC(C)=O)C(=O)N[C@@H](CC(C)C)C(=O)N[C@@H](CCCCN)C(=O)N[C@@]2(C)CCCC=CCCC[C@@](C)(C(=O)N[C@@H](Cc3ccc(O)cc3)C(=O)N[C@@H](CCCCN)C(=O)N[C@@H](C)C(=O)N[C@@H](CCCNC(=N)N)C(=O)N[C@@H](Cc3ccccc3)C(=O)N[C@@H](CCC(N)=O)C(=O)N[C@@H](C)C(=O)N[C@@H](CCC(=O)O)C(=O)N[C@@H](CCCNC(=N)N)C(=O)N[C@@H](Cc3c[nH]cn3)C(=O)N[C@@H](C)C(=O)N[C@@H](CCCNC(=N)N)C(=O)N[C@@H](CCC(=O)O)C(=O)N[C@@H](CCCCN)C(N)=O)NC(=O)[C@H](CC(=O)O)NC(=O)[C@H](C)NC(=O)[C@H](CCC(N)=O)NC2=O)C1=O (some centres unmarked) (Ac-C(Succinimide(1-Et,3-yl))LK[S5]QAD[S5]YKARFQAERHAREK-NH2; staple 4-8) | 70 | –
CC[C@H](C)[C@@H]1NC(=O)[C@@](C)(NC(=O)[C@H](C)NC(=O)[C@H](CCC(N)=O)NC(=O)[C@H](C)NC(=O)[C@H](CCCCN)NC(=O)[C@H](CC(C)C)NC(=O)[C@H](CSC2CC(=O)N(CC)C2=O)NC(C)=O)CCCC=CCCC[C@@](C)(C(=O)N[C@@H](CCCNC(=N)N)C(=O)N[C@@H](Cc2ccccc2)C(=O)N[C@@H](CCC(N)=O)C(=O)N[C@@H](C)C(=O)N[C@@H](CCC(=O)O)C(=O)N[C@@H](CCCNC(=N)N)C(=O)N[C@@H](Cc2c[nH]cn2)C(=O)N[C@@H](C)C(=O)N[C@@H](CCCNC(=N)N)C(=O)N[C@@H](CCC(=O)O)C(=O)N[C@@H](CCCCN)C(N)=O)NC(=O)[C@H](CCCCN)NC(=O)[C@H](Cc2ccc(O)cc2)NC1=O (some centres unmarked) (Ac-C(Succinimide(1-Et,3-yl))LKAQA[S5]IYK[S5]RFQAERHAREK-NH2; staple 7-11) | 65 | –
CC(=O)N[C@@H](CSC1CC(=O)N(CCNC(=O)CCC2=[N+]3C(=Cc4c(C)cc(C)n4[B-]3(F)F)C=C2)C1=O)C(=O)N[C@@H](CCC(=O)O)C(=O)N[C@@H](CC(C)C)C(=O)N[C@@H](C)C(=O)N[C@@H](CCC(N)=O)C(=O)N[C@@H](CC(C)C)C(=O)N[C@@H](CCC(N)=O)C(=O)N[C@@H](C)C(=O)N[C@@H](CCC(=O)O)C(=O)N[C@@H](CC(C)C)C(=O)N[C@@H](CC(=O)O)C(=O)N[C@]1(C)CCCCCCC=CCCC[C@@](C)(C(=O)N[C@@H](CC(=O)O)C(=O)N[C@@H](CCCCN)C(=O)N[C@@H](CCC(N)=O)C(=O)N[C@@H](CCC(=O)O)C(=O)N[C@@H](CC(C)C)C(=O)N[C@@H](CCCNC(=N)N)C(=O)N[C@@H](CCCCN)C(=O)N[C@@H](CC(C)C)C(N)=O)NC(=O)[C@H](CCC(N)=O)NC(=O)[C@H](C(C)C)NC(=O)[C@H](C(C)C)NC(=O)[C@H](C)NC(=O)[C@H](CCC(N)=O)NC(=O)[C@H](C(C)C)NC1=O (single isomer, unassigned) [Co-SAHN I307-A314, ELAQLQAELDXVQAVVQXDKQELRKL, reference compound] | – | cell death [1]: no effect of cell death; IC 50 NF-κB inhibition (NF-κB pathway; 70Z3-C3 cells, 2 h peptide then LPS 4 h, N.I = No inhibition observed): N.I*; NF-κB inhibition activity, in words (NF-κB pathway; LPS-induced NF-κB activation): does not inhibit; binding to CC2-LZ, in words (CC2-LZ domain of NEMO): does not interact; Kd (CC2-LZ domain of NEMO; fixed peptide concentration 10 μM, read-out: Binding affinity (FP) at 10 μM): > 10 mM
CC[C@H](C)[C@H](NC(=O)[C@H](CC(=O)O)NC(=O)C(C)(C)NC(=O)[C@H](CCC(N)=O)NC(=O)C(C)(C)NC(=O)[C@H](CCCCN)NC(=O)[C@H](CC(C)C)NC(=O)[C@H](CSC1CC(=O)N(CC)C1=O)NC(C)=O)C(=O)N[C@@H](Cc1ccc(O)cc1)C(=O)N[C@@H](CCCCN)C(=O)NC(C)(C)C(=O)N[C@@H](CCCNC(=N)N)C(=O)N[C@@H](Cc1ccccc1)C(=O)N[C@@H](CCC(N)=O)C(=O)NC(C)(C)C(=O)N[C@@H](CCC(=O)O)C(=O)N[C@@H](CCCNC(=N)N)C(=O)N[C@@H](Cc1c[nH]cn1)C(=O)NC(C)(C)C(=O)N[C@@H](CCCNC(=N)N)C(=O)N[C@@H](CCC(=O)O)C(=O)N[C@@H](CCCCN)C(N)=O (some centres unmarked) (Ac-C(Succinimide(1-Et,3-yl))LK[Aib]Q[Aib]DIYK[Aib]RFQ[Aib]ERH[Aib]REK-NH2) | 49 | –
Z-Val-Arg-Pro-Arg-fluoromethylketone ({code Z}-VRPR-CH2F; reading uncertain; also: printed as Z-Val-Arg-Pro-Arg-fluoromethylketone) [Z-VRPR-fmk] | – | cell death [1]: very little cell death; cell death, in words [2]: did not induce any cell death
CC[C@H](C)[C@@H]1NC(=O)[C@H](CC(=O)O)NC(=O)[C@H](C)NC(=O)[C@H](CCC(N)=O)NC(=O)[C@](C)(NC(=O)[C@H](CCCCN)NC(=O)[C@H](CC(C)C)NC(=O)[C@H](CSC2CC(=O)N(CC)C2=O)NC(C)=O)CCCCCC/C=C/CCC[C@@](C)(C(=O)N[C@@H](CCCNC(=N)N)C(=O)N[C@@H](Cc2ccccc2)C(=O)N[C@@H](CCC(N)=O)C(=O)N[C@@H](C)C(=O)N[C@@H](CCC(=O)O)C(=O)N[C@@H](CCCNC(=N)N)C(=O)N[C@@H](Cc2c[nH]cn2)C(=O)N[C@@H](C)C(=O)N[C@@H](CCCNC(=N)N)C(=O)N[C@@H](CCC(=O)O)C(=O)N[C@@H](CCCCN)C(N)=O)NC(=O)[C@H](CCCCN)NC(=O)[C@H](Cc2ccc(O)cc2)NC1=O (some centres unmarked) (Ac-C(Succinimide(1-Et,3-yl))LK[R8]QADIYK[S5]RFQAERHAREK-NH2; staple (E) 4-11) | 80 | –
